According to IntAct's records for PubMed 20059542:

B1: 26S proteasome non-ATPase regulatory subunit 4 homolog (Arabidopsis thaliana (Mouse-ear cress)), P55034 (parent)
chain: MVLEATMICIDNSEWMRNGDYSPSRLQAQTEAVNLLCGAKTQSNPENTVGILTMAGKGVRVLTTPTSDLGKILACMHGLDVGGEINLTAAIQIAQLALKHRQNKNQRQRIIVFAGSPIKYEKKALEIVGKRLKKNSVSLDIVNFGEDDDEEKPQKLEALLTAVNNNDGSHIVHVPSGANALSDVLLSTPVFTGDEGASGYVSAAAAAAAAGGDFDFGVDPNIDPELALALRVSMEEERARQEAAAKKAADEAGQKDKDGDTASASQETVARTTDKNAEPMDEDSALLDQAIAMSVGDVNMSEAADEDQDLALALQMSMSGEESSEATGAGNNLLGNQAFISSVLSSLPGVDPNDPAVKELLASLPDESKRTEEEESSSKKGEDEKK
B2: 26S proteasome regulatory subunit RPN13 (Saccharomyces cerevisiae), O13563 (parent)
chain: MSMSSTVIKFRAGVCEYNEDSRLCTPIPVQGEIEIKPNEEEELGFWDFEWRPTEKPVGRELDPISLILIPGETMWVPIKSSKSGRIFALVFSSNERYFFWLQEKNSGNLPLNELSAKDKEIYNKMIGVLNNSSESDEEESNDEKQKAQDVDVSMQD
B3: Ubiquitin domain-containing protein DSK2b (Arabidopsis thaliana (Mouse-ear cress)), Q9SII8 (parent)
chain: MGGEGDSSQPQSGEGEAVAVNIRCSNGTKFSVKTSLDSTVESFKELVAQSSDVPANQQRLIYKGRILKDDQTLLSYGLQADHTIHMVRGSAPSSAPPPAPAASQTTAPSVTRGVGSDNSSNLGGASPGESLFPGLGFNPLGGGNAMSGLFGAGLPDLVQTQQQLAQNPNMIRDMMNTPAIQNLMNNPEFMRSMIMNNPQMRELVDRNPELGHVLNDPSILRQTLEAARNPELMREMMRNTDRAMSNIESMPEGFNMLRRMYENVQEPLMNATTMSGNAGNNTGSNPFAALLGNQGVTTQGSDASNNSSTPNAGTGTIPNANPLPNPWGATGGQTTAPGRTNVGGDARSPGLGGLGGLGSLGGLGGLGMLGADSPLGATPDASQLSQLLQNPAISQMMQSVFSNPQYMNQLMSLNPQLRSMLDSNPQLREMMQNPDFLRQFSSPEMMQQMMTLQQSLSQNRNTASQDAGQTGAATGNNGGLDLLMNMFGSLGAGGLSGTNQSNVPPEERYATQLQQLQEMGFYDRAENIRALLATNGNVNAAVERLLGSIGQ
B4: Ubiquitin domain-containing protein DSK2 (Saccharomyces cerevisiae), P48510 (parent)
chain: MSLNIHIKSGQDKWEVNVAPESTVLQFKEAINKANGIPVANQRLIYSGKILKDDQTVESYHIQDGHSVHLVKSQPKPQTASAAGANNATATGAAAGTGATPNMSSGQSAGFNPLADLTSARYAGYLNMPSADMFGPDGGALNNDSNNQDELLRMMENPIFQSQMNEMLSNPQMLDFMIQSNPQLQAMGPQARQMLQSPMFRQMLTNPDMIRQSMQFARMMDPNAGMGSAGGAASAFPAPGGDAPEEGSNTNTTSSSNTGNNAGTNAGTNAGANTAANPFASLLNPALNPFANAGNAASTGMPAFDPALLASMFQPPVQASQAEDTRPPEERYEHQLRQLNDMGFFDFDRNVAALRRSGGSVQGALDSLLNGDV
B5: 26S proteasome non-ATPase regulatory subunit 4 homolog (Arabidopsis thaliana (Mouse-ear cress)), P55034 (parent)
chain: B1 chain
partner: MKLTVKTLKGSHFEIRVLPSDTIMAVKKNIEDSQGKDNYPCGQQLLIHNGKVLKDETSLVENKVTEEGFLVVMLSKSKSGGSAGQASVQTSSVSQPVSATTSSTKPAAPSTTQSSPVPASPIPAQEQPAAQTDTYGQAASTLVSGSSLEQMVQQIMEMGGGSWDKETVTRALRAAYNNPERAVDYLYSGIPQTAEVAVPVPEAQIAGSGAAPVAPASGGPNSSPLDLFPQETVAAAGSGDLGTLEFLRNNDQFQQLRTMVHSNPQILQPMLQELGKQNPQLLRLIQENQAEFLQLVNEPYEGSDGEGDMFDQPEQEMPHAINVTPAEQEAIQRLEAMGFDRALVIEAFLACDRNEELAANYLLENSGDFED
B6: UV excision repair protein RAD23 (Saccharomyces cerevisiae), P32628 (parent)
chain: MVSLTFKNFKKEKVPLDLEPSNTILETKTKLAQSISCEESQIKLIYSGKVLQDSKTVSECGLKDGDQVVFMVSQKKSTKTKVTEPPIAPESATTPGRENSTEASPSTDASAAPAATAPEGSQPQEEQTATTERTESASTPGFVVGTERNETIERIMEMGYQREEVERALRAAFNNPDRAVEYLLMGIPENLRQPEPQQQTAAAAEQPSTAATTAEQPAEDDLFAQAAQGGNASSGALGTTGGATDAAQGGPPGSIGLTVEDLLSLRQVVSGNPEALAPLLENISARYPQLREHIMANPEVFVSMLLEAVGDNMQDVMEGADDMVEGEDIEVTGEAAAAGLGQGEGEGSFQVDYTPEDDQAISRLCELGFERDLVIQVYFACDKNEEAAANILFSDHAD
B7: 26S proteasome non-ATPase regulatory subunit 4 homolog (Arabidopsis thaliana (Mouse-ear cress)), P55034 (parent)
chain: B1 chain
partner: B3 chain
B8: 26S proteasome non-ATPase regulatory subunit 4 (Homo sapiens), P55036 (parent)
chain: MVLESTMVCVDNSEYMRNGDFLPTRLQAQQDAVNIVCHSKTRSNPENNVGLITLANDCEVLTTLTPDTGRILSKLHTVQPKGKITFCTGIRVAHLALKHRQGKNHKMRIIAFVGSPVEDNEKDLVKLAKRLKKEKVNVDIINFGEEEVNTEKLTAFVNTLNGKDGTGSHLVTVPPGPSLADALISSPILAGEGGAMLGLGASDFEFGVDPSADPELALALRVSMEEQRQRQEEEARRAAAASAAEAGIATTGTEDSDDALLKMTISQQEFGRTGLPDLSSMTEEEQIAYAMQMSLQGAEFGQAESADIDASSAMDTSEPAKEEDDYDVMQDPEFLQSVLENLPGVDPNNEAIRNAMGSLASQATKDGKKDKKEEDKK
partner: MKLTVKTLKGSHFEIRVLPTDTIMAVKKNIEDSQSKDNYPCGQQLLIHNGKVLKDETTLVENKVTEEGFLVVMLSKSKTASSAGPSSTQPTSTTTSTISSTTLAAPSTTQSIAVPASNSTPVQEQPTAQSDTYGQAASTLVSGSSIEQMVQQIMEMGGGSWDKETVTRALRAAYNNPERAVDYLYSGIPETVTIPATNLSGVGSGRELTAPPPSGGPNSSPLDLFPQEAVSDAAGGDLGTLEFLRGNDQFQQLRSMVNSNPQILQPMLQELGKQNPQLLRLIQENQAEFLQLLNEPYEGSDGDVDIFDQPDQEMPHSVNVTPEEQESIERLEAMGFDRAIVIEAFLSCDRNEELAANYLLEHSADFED

Variants of: B1
Conditions: with dsk2_yeast DSK2, P48510

| effect of a mutation on the interaction | Variant |
| --- | --- |
| with no effect | L286N;L287N;Q289N;A290D |
| disrupting interaction strength | L226D;A227D;L228D;A229D;L230D |
| with no effect | L310N;A311N;L312N;A313D;L314N |
| with no effect | L286N;L287N;Q289N;A290D;L310N;A311N;L312N;A313D;L314N |

Variants of: B1
Conditions: with ubql2_human UBQLN2, Q9UHD9
ubql2_human UBQLN2, Q9UHD9, sequence (Q9UHD9 whole entry): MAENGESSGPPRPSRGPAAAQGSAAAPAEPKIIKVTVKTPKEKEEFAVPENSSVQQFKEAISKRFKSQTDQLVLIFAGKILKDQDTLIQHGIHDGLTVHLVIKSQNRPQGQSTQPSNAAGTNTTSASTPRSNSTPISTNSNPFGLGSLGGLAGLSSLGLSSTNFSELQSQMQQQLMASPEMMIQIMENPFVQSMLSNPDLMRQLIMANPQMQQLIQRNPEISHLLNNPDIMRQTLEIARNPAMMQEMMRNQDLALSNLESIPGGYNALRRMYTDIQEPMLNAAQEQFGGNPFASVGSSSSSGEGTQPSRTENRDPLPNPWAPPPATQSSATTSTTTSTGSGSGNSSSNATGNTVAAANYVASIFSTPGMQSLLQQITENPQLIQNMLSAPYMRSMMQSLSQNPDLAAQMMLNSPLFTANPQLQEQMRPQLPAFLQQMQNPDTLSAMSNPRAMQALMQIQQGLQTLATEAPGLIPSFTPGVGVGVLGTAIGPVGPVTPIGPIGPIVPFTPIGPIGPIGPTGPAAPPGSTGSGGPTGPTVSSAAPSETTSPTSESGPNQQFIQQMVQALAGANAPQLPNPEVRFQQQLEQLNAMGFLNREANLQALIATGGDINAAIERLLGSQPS

| effect of a mutation on the interaction | Variant |
| --- | --- |
| with no effect | L286N;L287N;Q289N;A290D |
| disrupting interaction strength | L226D;A227D;L228D;A229D;L230D |
| with no effect | L310N;A311N;L312N;A313D;L314N |
| with no effect | L286N;L287N;Q289N;A290D;L310N;A311N;L312N;A313D;L314N |

Variants of: B1
Conditions: with rd23b_human RAD23B

| Variant | effect of a mutation on the interaction |
| --- | --- |
| L226D;A227D;L228D;A229D;L230D;L310N;A311N;L312N;A313D;L314N | disrupting interaction strength |
| L226D;A227D;L228D;A229D;L230D | with no effect |
| L226D;A227D;L228D;A229D;L230D;L286N;L287N;Q289N;A290D | decreasing interaction strength |

Results, then the variant that gave them:

| effect of a mutation on the interaction | Variant |
| --- | --- |
| with no effect | L286N;L287N;Q289N;A290D |
| disrupting interaction strength | L310N;A311N;L312N;A313D;L314N |
| disrupting interaction strength | L286N;L287N;Q289N;A290D;L310N;A311N;L312N;A313D;L314N |

Variants of: B2
Conditions: with dsk2_yeast DSK2, P48510

| effect of a mutation on the interaction | Variant |
| --- | --- |
| decreasing interaction | L43A |

Variants of: B2
Conditions: with dsk2_yeast DSK2, P48510
Remark: another data set of the same source

| effect of a mutation on the interaction | Variant |
| --- | --- |
| disrupting interaction | E72Q |

Variants of: B2
Conditions: with dsk2_yeast DSK2, P48510
Remark: another data set of the same source

| effect of a mutation on the interaction | Variant |
| --- | --- |
| disrupting interaction | F91R |

Variants of: B3
Conditions: with rpn13_arath RPN13, O48726
rpn13_arath RPN13, O48726, sequence (O48726 whole entry): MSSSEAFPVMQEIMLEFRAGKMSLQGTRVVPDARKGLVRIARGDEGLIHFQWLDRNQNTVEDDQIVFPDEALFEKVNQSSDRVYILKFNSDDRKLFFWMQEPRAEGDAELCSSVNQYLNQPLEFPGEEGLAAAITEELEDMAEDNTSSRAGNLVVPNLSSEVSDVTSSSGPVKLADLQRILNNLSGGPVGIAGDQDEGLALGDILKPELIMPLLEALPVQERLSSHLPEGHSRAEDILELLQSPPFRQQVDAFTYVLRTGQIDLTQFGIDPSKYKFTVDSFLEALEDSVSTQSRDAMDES

| effect of a mutation on the interaction | Variant |
| --- | --- |
| disrupting interaction | I61A |

Variants of: B4
Conditions: with ubc_human UBC
Target sequence in this assay (P0CG48 whole entry, looked up): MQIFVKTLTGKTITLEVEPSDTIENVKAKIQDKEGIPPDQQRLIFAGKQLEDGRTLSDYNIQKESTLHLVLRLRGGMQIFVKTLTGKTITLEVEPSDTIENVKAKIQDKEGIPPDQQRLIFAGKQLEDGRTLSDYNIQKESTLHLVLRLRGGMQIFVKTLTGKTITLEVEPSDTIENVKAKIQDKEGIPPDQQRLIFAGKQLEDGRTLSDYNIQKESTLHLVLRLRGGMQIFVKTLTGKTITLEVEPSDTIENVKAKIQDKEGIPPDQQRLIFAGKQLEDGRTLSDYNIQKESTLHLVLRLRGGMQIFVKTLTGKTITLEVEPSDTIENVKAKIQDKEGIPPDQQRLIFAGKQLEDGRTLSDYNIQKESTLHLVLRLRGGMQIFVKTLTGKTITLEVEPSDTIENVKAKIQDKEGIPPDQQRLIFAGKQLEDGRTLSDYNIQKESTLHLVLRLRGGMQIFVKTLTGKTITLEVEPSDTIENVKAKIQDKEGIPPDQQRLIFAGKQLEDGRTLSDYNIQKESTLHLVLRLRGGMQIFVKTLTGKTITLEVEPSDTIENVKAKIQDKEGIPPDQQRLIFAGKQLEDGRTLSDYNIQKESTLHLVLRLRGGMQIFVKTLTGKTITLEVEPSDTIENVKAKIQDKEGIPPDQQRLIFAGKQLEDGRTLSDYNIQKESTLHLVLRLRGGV

| effect of a mutation on the interaction | Variant |
| --- | --- |
| disrupting interaction strength | M342A;G343A |

Variants of: B5
Conditions: with rd23b_arath RAD23B

| Variant | effect of a mutation on the interaction |
| --- | --- |
| L226D;A227D;L228D;A229D;L230D | with no effect |
| L226D;A227D;L228D;A229D;L230D;L286N;L287N;Q289N;A290D | decreasing interaction strength |

More lines, now with the values ahead:

| effect of a mutation on the interaction | Variant |
| --- | --- |
| disrupting interaction strength | L226D;A227D;L228D;A229D;L230D;L310N;A311N;L312N;A313D;L314N |
| with no effect | L286N;L287N;Q289N;A290D |
| disrupting interaction strength | L286N;L287N;Q289N;A290D;L310N;A311N;L312N;A313D;L314N |
| disrupting interaction strength | L310N;A311N;L312N;A313D;L314N |

Variants of: B6
Conditions: with ubc_human UBC
Target sequence in this assay (P0CG48 whole entry, looked up): as above

| effect of a mutation on the interaction | Variant |
| --- | --- |
| disrupting interaction strength | M158A;G159A;Y160A;L367A;G368A;F369A |
| with no effect | L367A;G368A;F369A |
| disrupting interaction strength | M158A;G159A;Y160A |

Variants of: B6
Conditions: with ubc_human UBC
Remark: another data set of the same source
Target sequence in this assay (P0CG48 whole entry, looked up): as above

| effect of a mutation on the interaction | Variant |
| --- | --- |
| decreasing interaction strength | M158A;G159A;Y160A |

Variants of: B7
Conditions: with dsk2b_arath DSK2B

| effect of a mutation on the interaction | Variant |
| --- | --- |
| with no effect | L286N;L287N;Q289N;A290D;L310N;A311N;L312N;A313D;L314N |
| with no effect | L310N;A311N;L312N;A313D;L314N |
| disrupting interaction strength | L226D;A227D;L228D;A229D;L230D |
| with no effect | L286N;L287N;Q289N;A290D |

Variants of: B8
Conditions: with rd23a_arath RAD23A

| effect of a mutation on the interaction | Variant |
| --- | --- |
| disrupting interaction strength | L216N;A217N;L218N;A219N;L220N;I287N;A288N;Y289N;A290N;M291N |
| disrupting interaction strength | I287N;A288N;Y289N;A290N;M291N |
